According to patent publication US20150368338A1 (Janssen / Centocor, published 2015):
Where a chain is given by its changes, count along the chain named.

T1: IFN-αF (human, UniProt P01568 24-189)
T1 chain: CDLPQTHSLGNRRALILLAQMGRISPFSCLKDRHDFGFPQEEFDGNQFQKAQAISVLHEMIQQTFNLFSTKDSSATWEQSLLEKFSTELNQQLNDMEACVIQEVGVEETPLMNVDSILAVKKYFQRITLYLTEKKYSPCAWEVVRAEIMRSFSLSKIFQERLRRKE

B1: IFWM3331 (antibody, IgG1, V domains shown)
VH: EVQLVQSGAEVKKPGESLKISCKGSGYSFTSYWIGWVRQMPGKGLEWMGIIDPSDSDTRYSPSFQGQVTISADKSISTAYLQWSSLKASDTAMYYCARHPGLNWAPDFDYWGQGTLVTVSS
VL: DIQMTQSPSSLSASVGDRVTITCRASQSIDNSYLNWYQQKPGKAPKLLIYGASSLQSGVPSRFSGSGSGTDFTLTISSLQPEDFATYYCQQGWDWPLTFGQGTKVEIK
B2: IFWM3423 (antibody, IgG1, V domains shown)
VH: B1 VH with N103A
VL: DIQMTQSPSSLSASVGDRVTITCRASQSIDGFLNWYQQKPGKAPKLLIYFASSLQSGVPSRFSGSGSGTDFTLTISSLQPEDFATYYCQQSYDLPITFGQGTKVEIK
B3: IFWM3332 (antibody, IgG1, V domains shown)
VH: B1 VH
VL: B1 VL with D30A, S32T, Y33N, Y50H, G51W, G92W, W93Y, W95N
B4: IFWM3421 (antibody, IgG1, V domains shown)
VH: B1 VH
VL: B2 VL
B5: IFWM3413 (antibody, IgG1, V domains shown)
VH: B1 VH with N103A
VL: DIQMTQSPSSLSASVGDRVTITCRASQSINYLNWYQQKPGKAPKLLIYGASSLQSGVPSRFSGSGSGTDFTLTISSLQPEDFATYYCQQSHDWPITFGQGTKVEIK
notes: mAb; IgG1/kappa said of the parent and of selected mAbs; also called IFWB3148
B6: IFWM3377 (antibody, IgG1, V domains shown)
VH: B1 VH with R59A
VL: B1 VL with D30R, S32T, Y33N, Y50H, G51W, W93Y, W95T, L97F
notes: mAb; IgG1/kappa said of the parent and of selected mAbs; also called IFWB3112
B7: IFWM3375 (antibody, IgG1, V domains shown)
VH: B1 VH with R59A
VL: B1 VL with D30R, S32N, G51A, W93Y, W95T
notes: mAb; IgG1/kappa said of the parent and of selected mAbs; also called IFWB3110
B8: IFWM3378 (antibody, IgG1, V domains shown)
VH: B1 VH with R59A
VL: B1 VL with D30A, S32N, Y33D, Y50H, G51W, G92D, W93Y
notes: mAb; IgG1/kappa said of the parent and of selected mAbs; also called IFWB3113
B9: IFWM3370 (antibody, IgG1, V domains shown)
VH: B1 VH with R59A
VL: B1 VL
notes: mAb; IgG1/kappa said of the parent and of selected mAbs; also called IFWB3105
B10: IFWM3414 (antibody, IgG1, V domains shown)
VH: B1 VH with N103A
VL: B1 VL with D30R, S32N, G51A, W93Y, W95T
notes: mAb; IgG1/kappa said of the parent and of selected mAbs; also called IFWB3149
B11: IFWM3398 (antibody, IgG1, V domains shown)
VH: B1 VH with N103A
VL: B2 VL with D30N, F32V, Y92H, L94F, I96L
notes: mAb; IgG1/kappa said of the parent and of selected mAbs; also called IFWB3133
B12: IFWM3420 (antibody, IgG1, V domains shown)
VH: B1 VH with R59A
VL: B2 VL with D30A, F50Y, D93S, L94I
notes: mAb; IgG1/kappa said of the parent and of selected mAbs; also called IFWB3155
B13: IFWM3376 (antibody, IgG1, V domains shown)
VH: B1 VH with R59A
VL: B1 VL with D30S, Y33N, Y50H, G51W, G92W, W93Y, W95H
notes: mAb; IgG1/kappa said of the parent and of selected mAbs; also called IFWB3111
B14: IFWM3418 (antibody, IgG1, V domains shown)
VH: B1 VH
VL: B2 VL with D30A, F50Y, D93S, L94I
notes: mAb; IgG1/kappa said of the parent and of selected mAbs; also called IFWB3153
B15: IFWM3415 (antibody, IgG1, V domains shown)
VH: B1 VH with N103A
VL: B1 VL with D30S, Y33N, Y50H, G51W, G92W, W93Y, W95H
notes: mAb; IgG1/kappa said of the parent and of selected mAbs; also called IFWB3150
B16: IFWM3411 (antibody, IgG1, V domains shown)
VH: B1 VH with N103A
VL: B1 VL with S32N, Y33N, G51A, W93Y
notes: mAb; IgG1/kappa said of the parent and of selected mAbs; also called IFWB3146
B17: IFWM3419 (antibody, IgG1, V domains shown)
VH: B1 VH with N103A
VL: B2 VL with D30A, F50Y, D93S, L94I
notes: mAb; IgG1/kappa said of the parent and of selected mAbs; also called IFWB3154
B18: IFWM3406 (antibody, IgG1, V domains shown)
VH: B1 VH with N103A
VL: B5 VL with Y31N, G49W, S90G, H91Y, W93T, I95F
notes: mAb; IgG1/kappa said of the parent and of selected mAbs; also called IFWB3141
B19: IFWM3407 (antibody, IgG1, V domains shown)
VH: B1 VH with N103A
VL: B1 VL with D30R, S32N, Y33N, Y50H, G51W, W93Y, W95T, L97F
notes: mAb; IgG1/kappa said of the parent and of selected mAbs; also called IFWB3142
B20: IFWM3409 (antibody, IgG1, V domains shown)
VH: B1 VH with N103A
VL: B1 VL
notes: mAb; IgG1/kappa said of the parent and of selected mAbs; also called IFWB3144
B21: IFWM3417 (antibody, IgG1, V domains shown)
VH: B1 VH with N103A
VL: B1 VL with D30A, S32N, Y33D, Y50H, G51W, G92D, W93Y
notes: mAb; IgG1/kappa said of the parent and of selected mAbs; also called IFWB3152
B22: IFWM3371 (antibody, IgG1, V domains shown)
VH: B1 VH with R59A
VL: B1 VL with D30A, S32T, Y33N, Y50H, G51W, G92W, W93Y, W95N
notes: mAb; IgG1/kappa said of the parent and of selected mAbs; also called IFWB3106
B23: IFWM3403 (antibody, IgG1, V domains shown)
VH: B1 VH with N103A
VL: B2 VL with D30R, G31N, F32S, Y49K, F50W, S91L, L94W, I96L
notes: mAb; IgG1/kappa said of the parent and of selected mAbs; also called IFWB3138
B24: IFWM3372 (antibody, IgG1, V domains shown)
VH: B1 VH with R59A
VL: B1 VL with S32N, Y33N, G51A, W93Y
notes: mAb; IgG1/kappa said of the parent and of selected mAbs; also called IFWB3107

molecular target: IFN-αH2 (human, UniProt P01570 24-189); assay: cell-based or functional assay

| Binder | IC50, ISRE assay [nM] |
| --- | --- |
| B1 | 0.033 |
| B2 | 0.004 |
| B3 | 0.092 |
| B4 | 0.008 |

molecular target: T2, IFN-αG (human, UniProt P01569 24-189); assay: cell-based or functional assay

| Binder | IC50, ISRE assay [nM] |
| --- | --- |
| B1 | 0.027 |
| B2 | 0.009 |
| B3 | 0.099 |
| B4 | 0.018 |

molecular target: T3, IFN-αC (human, UniProt P01566 24-189); assay: cell-based or functional assay

| Binder | IC50, ISRE assay [nM] |
| --- | --- |
| B1 | 0.098 |
| B2 | 0.012 |
| B3 | 0.479 |
| B4 | 0.02 |

Molecular target: T1, IFN-αF
Assay: cell-based or functional assay

| Binder | IC50, ISRE assay [nM] |
| --- | --- |
| B1 | 0.048 |
| B2 | 0.008 |
| B3 | 0.228 |
| B4 | 0.011 |

molecular target: T4, IFN-α4a (human, UniProt P05014 24-189); assay: ProteOn SPR, cell supernatant;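 also: each binding measurement used just a single antigen concentration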
T4 construct: Recombinant, HEK293; also called IFN-αM1
Excerpt: (§1) To increase the assay throughput, only one concentration of the individual antigen was used.

| Binder | Kd [nM] |
| --- | --- |
| B5 | 0.206 |
| B6 | 0.193 |
| B7 | 0.067 |
| B8 | 0.533 |
| B9 | 0.155 |
| B10 | 0.193 |
| B11 | 0.061 |
| B12 | 0.475 |
| B13 | 0.113 |
| B14 | 1.16 |
| B15 | 0.069 |
| B16 | 0.101 |
| B17 | 0.582 |
| B18 | 0.135 |
| B19 | 0.128 |
| B20 | 0.058 |
| B21 | 0.1 |
| B22 | 0.1 |
| B23 | 0.062 |
| B24 | 0.432 |

molecular target: T5, IFN-αWA (human, UniProt P05015 24-189); assay: ProteOn SPR, cell supernatant;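 also: each binding measurement used just a single antigen concentration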
T5 construct: Recombinant, HEK293; also called IFN-α16
Excerpt: as §1

| Binder | Kd [nM] |
| --- | --- |
| B5 | 0.085 |
| B6 | 0.12 |
| B7 | 0.031 |
| B8 | 0.248 |
| B9 | 0.041 |
| B10 | 0.07 |
| B11 | 0.03 |
| B12 | 0.124 |
| B13 | 0.062 |
| B14 | 0.493 |
| B15 | 0.044 |
| B16 | 0.087 |
| B17 | 0.193 |
| B18 | 0.063 |
| B19 | 0.06 |
| B20 | 0.025 |
| B21 | 0.059 |
| B22 | 0.064 |
| B23 | 0.023 |
| B24 | 0.272 |

molecular target: T6, human IFN-ω (human, UniProt P05000 24-195); assay: ProteOn SPR, cell supernatant;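 also: each binding measurement used just a single antigen concentration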
T6 construct: Recombinant, HEK293; also called interferon omega
Excerpt: as §1

| Binder | Kd [nM] |
| --- | --- |
| B5 | 0.047 |
| B6 | 0.027 |
| B7 | 0.019 |
| B8 | 0.075 |
| B9 | 0.01 |
| B10 | 0.058 |
| B11 | 0.026 |
| B12 | 0.036 |
| B13 | 0.02 |
| B14 | 0.089 |
| B15 | 0.018 |
| B16 | 0.028 |
| B17 | 0.086 |
| B18 | 0.078 |
| B19 | 0.017 |
| B20 | 0.014 |
| B21 | 0.029 |
| B22 | 0.018 |
| B23 | 0.007 |
| B24 | 0.049 |

molecular target: T7, IFN-αJ1 (human, UniProt P01567 24-189); assay: ProteOn SPR, cell supernatant;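 also: each binding measurement used just a single antigen concentration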
T7 construct: Recombinant, HEK293; also called IFN-α7
Excerpt: as §1

| Binder | Kd [nM] |
| --- | --- |
| B5 | 0.15 |
| B6 | 0.192 |
| B7 | 0.045 |
| B8 | 0.496 |
| B9 | 0.225 |
| B10 | 0.174 |
| B11 | 0.044 |
| B12 | 0.299 |
| B13 | 0.14 |
| B14 | 0.656 |
| B15 | 0.051 |
| B16 | 0.151 |
| B17 | 0.399 |
| B18 | 0.119 |
| B19 | 0.058 |
| B20 | 0.041 |
| B21 | 0.07 |
| B22 | 0.125 |
| B23 | 0.059 |
| B24 | 0.69 |

molecular target: T2, IFN-αG; assay: ProteOn SPR, cell supernatant;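 also: each binding measurement used just a single antigen concentration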
Excerpt: as §1

| Binder | Kd [nM] |
| --- | --- |
| B5 | 0.044 |
| B6 | 0.038 |
| B7 | 0.035 |
| B8 | 0.15 |
| B9 | 0.021 |
| B10 | 0.033 |
| B11 | 0.022 |
| B12 | 0.037 |
| B13 | 0.048 |
| B14 | 0.178 |
| B15 | 0.026 |
| B16 | 0.035 |
| B17 | 0.081 |
| B18 | 0.037 |
| B19 | 0.027 |
| B20 | 0.005 |
| B21 | 0.03 |
| B22 | 0.05 |
| B23 | 0.027 |
| B24 | 0.103 |

molecular target: T3, IFN-αC; assay: ProteOn SPR, cell supernatant;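 also: each binding measurement used just a single antigen concentration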
Excerpt: as §1

| Binder | Kd [nM] |
| --- | --- |
| B5 | 0.037 |
| B6 | 0.044 |
| B7 | 0.022 |
| B8 | 0.172 |
| B9 | 0.039 |
| B10 | 0.068 |
| B11 | 0.017 |
| B12 | 0.113 |
| B13 | 0.034 |
| B14 | 0.191 |
| B15 | 0.019 |
| B16 | 0.023 |
| B17 | 0.126 |
| B18 | 0.037 |
| B19 | 0.032 |
| B20 | 0.011 |
| B21 | 0.031 |
| B22 | 0.043 |
| B23 | 0.025 |
| B24 | 0.094 |

Molecular target: T1, IFN-αF
Assay: ProteOn SPR, cell supernatant
Excerpt: as §1

| Binder | Kd [nM] |
| --- | --- |
| B5 | 0.033 |
| B6 | 0.051 |
| B7 | 0.023 |
| B8 | 0.168 |
| B9 | 0.039 |
| B10 | 0.101 |
| B11 | 0.017 |
| B12 | 0.118 |
| B13 | 0.039 |
| B14 | 0.229 |
| B15 | 0.026 |
| B16 | 0.037 |
| B17 | 0.158 |
| B18 | 0.037 |
| B19 | 0.033 |
| B20 | 0.009 |
| B21 | 0.039 |
| B22 | 0.05 |
| B23 | 0.027 |
| B24 | 0.116 |
